In patent US20110059051A1:

Molecular target: Gal4-DNA binding domain fusion with PGC-1α (yeast) (UniProt P04386)
Assay: cell-based or functional assay

## PRDM16 expressed from pcDNA-Prdm16 plasmid in cos7 cells (from UniProt A2A935 1-1275)
  transactivation of the UAS-Firefly Luciferase reporter by gal4-pgc1α: 200 fold
